Drawing on a protein production outcome set (Wang et al. 2014), this text covers protein production for 19 sequences.

The series can be described thus: label from the status in PepcDB records.
“MQIPHGELRTLTYHSNALKSERQMYVWTPPGYSESSKPLPVLYFYHGFGDTGASAVVQGRIPQMMDNLLAEKKIEPMLVVIPDTETDVPGIIPEEYPPQERRKVFYPRNALAADRELIHDIIPAIGKRFNVRQDANGRALAGLSQGGYQALVSGMSHLDHFGWLATFSGVTTETVPNMAVAAQLERPEQINQQLKNLTVVIGETDNITGKDIAGLKTMLEQKNIRFDYTHYPNLGHEMDVWRPAYSEFVQKLFKLEHHHHHH”: the protein production result is “not failed”.

In the case of “MQIQQMLENRIEELEMKIAFQEQLLDELNHALVQQQFDIDKMQVQLRYMANKLKDFQSSNIASQSEETPPPHY”, the protein production result is listed as “not failed”.

With “MQIRLAFPNEIDQIMLLIEEARAEIAKTGSDQWQKEDGYPNRNDIIDDILNGYAWVGIEDGMLATYAAVIDGHEEVYDAIYEGKWLHDNHRYLTFHRIAISNQFRGRGLAQTFLQGLIEGHKGPDFRCDTHEKNVTMQHILNKLGYQYCGKVPLDGVRLAYQKIKEKGETSIYREIDERNPM”, the protein production entry is listed as “not failed”.

As to “MQKDKILKKIIVLCFFIFYNFNFFGLAVPSLSGPVVDKAGILSRSEFEKIENFLLDLDQKSKVQIAVLIIPSLEGESIEDYSMQVAEEWKLGDKEKDSGALLVVAVKDKKLRIEVGYGLEENLTDSRSGQIIRNFIAPQFRSGNYGEGIYDGIKAMAAYASEDESLLKEIAVSDEDDEGGFPQALLFFLFVYLMISKFSPGGLFWIFYLLSRSGRAGRSFNGRSSSRGSFFGGSIGRSSGRGFSGGGFSGGGGSFGGGGASGGW”, the protein production result is reported as “failed”.

With “MQKKTVGLLLASAGPFLWGSSGTVAQHLFDTTTISPLWLVAVRMLVSGGLLILYGFSRRLPVMVVFHDWRATVRLIVFSLFGMAGVQLTYFMAISTGNAAMAAILQFLSPVMIIIFITATTWQLPGKVDVISVVSAIAGTVLIVTEGHTDSLALPVIAIIWGLLAAVGATIYTLMPTKLLKVYGATPIVGWSMLIGGGLVLVGTGAWHHSPQLTWVAWGQVGFVVIFGTMLAYLFFLQSLEYILPTTASVLGAIEPLAATILSVLFLHVHFNWVGLIGAIMIVGVTILQFAATRANQFVSK”, the protein production result was “failed”.

Regarding “MQKQAELYRGKAKTVYSTENPDLLVLEFRNDTSAGDGARIEQFDRKGMVNNKFNYFIMSKLAEAGIPTQMERLLSDTECLVKKLDMVPVECVVRNRAAGSLVKRLGIEEGIELNPPLFDLFLKNDAMHDPMVNESYCETFGWVSKENLARMKELTYKANDVLKKLFDDAGLILVDFKLEFGLYKGEVVLGDEFSPDGSRLWDKETLEKMDKDRFRQSLGGLIEAYEAVARRLGVQLD”, the protein production result is given as “failed”.

With “MQKRAYLLIAVSGSLWGTIGIFVRELYGLGFSTLQIVTMRVFSAAVIMLLYLLFTKPELLKIRFRDSLYFVGTGILSIVFFNLCYFITIRETSIAIAVTLLYTAPAFVAILSRIIFRESLDAKKLFSLGLTLTGCAFVTGYLPELGNSPSITLPWLLTGLGAGFGYALYSIFGKVALKKYDTVTITAYTFFFASLALLPLVSFETSGEAFSTGSFWTYLIGLGFFPTVLAYLLYTKGLEEVESSRAAIVATVEPVVATFAGFFFFREIVSGWQLAGILFVLAGVVLIQERK”, the protein production result is recorded as “failed”.

Consider “MQKTAFIWDLDGTLLDSYEAILSGIEETFAQFSIPYDKEKVREFIFKYSVQDLLVRVAEDRNLDVEVLNQVRAQSLAEKNAQVVLMPGAREVLAWADESGIQQFIYTHKGNNAFTILKDLGVESYFTEILTSQSGFVRKPSPEAATYLLDKYQLNSDNTYYIGDRTLDVEFAQNSGIQSINFLESTYEGNHRIQALADISRIFETK”, for which the protein production result is “not failed”.

For the sequence “MQKTDGLADRIWVVLVQPKYQGNIGAVARSMKNSGLSKLIIVGNRPDDEAFARSMGGRQILENAEIVDSLEEIVHRFTIVAGTSSTASSNLKRFRRLPVDPETFWKQMESQTGKVALVFGREDDGLRNEELDLCNYFIYIPGNPDYPVYNLSHAVAIVLYVMYRSYVPSDMIQHESIKPEHEVLLMSNILDI”, the protein production entry is “not failed”.

Take “MQKVTLGLLVFLAGFPVLDANDLEDKNSPFYYDWHSLQVGGLICAGVLCAMGIIIVMSAKCKCKFGQKSGHHPGETPPLITPGSAQS”: the protein production entry is listed as “failed”.

With “MQLEVILPLVAYLVVVFGISVYAMRKRSTGTFLNEYFLGSRSMGGIVLAMTLTATYISASSFIGGPGAAYKYGLGWVLLAMIQLPAVWLSLGILGKKFAILARRYNAVTLNDMLFARYQSRLLVWLASLSLLVAFVGAMTVQFIGGARLLETAAGIPYETGLLIFGISIALYTAFGGFRASVLNDTMQGLVMLIGTVVLLIGVVHAAGGLSNAVQTLQTIDPQLVTPQGADDILSPAFMTSFWVLVCFGVIGLPHTAVRCISYKDSKAVHRGIIIGTIVVAILMFGMHLAGALGRAVIPDLTVPDLVIPTLMVKVLPPFAAGIFLAAPMAAIMSTINAQLLQSSATIIKDLYLNIRPDQMQNETRLKRMSAVITLVLGALLLLAAWKPPEMIIWLNLLAFGGLEAVFLWPLVLGLYWERANAKGALSAMIVGGVLYAVLATLNIQYLGFHPIVPSLLLSLLAFLVGNRFGTSVPQATVLTTDK”, the protein production result is reported as “failed”.

As for “MQLIRGFHNLANYDALKKGCVLTIGNFDGVHIGHQNILARLCDQSLAIGLPSVVMLFEPQPREFFAKNSQNQTASALSNAVPARLMRLRDKLKYLAEMGVDFVLCVNFNQKFAKYSAEDFITELLVKKLKVRYLSVGDDFRFGIERRGNFEMLRNAGLTHRFAVEESHTHRFDTLRISSSLIRQALQQNDLALVENLLGKPYSIRGRVAHGNKLGRTIGFPTANIMLNRLVTPIQGVFIVEVQTIYGRFNGIANVGNRPTINGTKPLLEVHIFDFNNAIYHQIIEVIFIKKIRDELKFASFTLLKEQIEKDCQQAVEFFNQLPKTK”, the protein production result was “failed”.

For “MQLNESMSTQDNSLAENYYQQAIEQWKSRDQKQALQFFKKAVRAKPSNAHYWYALAGTYHIQNKFRAARFCFEKSLNLNPNQDEIKIFLCEICYLLTDYKSVAYYAGQVDLSKIQNLEILYKVACSFKELGQLEKTGQVCSQILSLDDNFWQAKLLAAEILRIKGYSGEAKVLVLELIDQQPTVGKFWNELGINEVDLAHEDEALSAFSKAEQYVSGPEKLIIGSNYLFEFSSGLRTAKDILDAHLLWNKKYCKDQGGSFQSSKFNYLKSNDKKNIAYLSGDFKTHSVSYFIEGILENHSRDAFNIILLSNTQEDEKTKKFKELADIWIDLKLTNFETAAQIVKRLNIDILIELSGHTNGNKLNLLSSRLAPVQATYLGYFATTGLSTIDYWITDNVVHPAHTVELATETIFRLPRCYLAYTPPPQSPSIAESPVIKNGYITFGSFVASRKISDYSILLWSSILSEIPNSQLLIKNRSCVSPLYRSELIEKFSLCGISSQRINFNEAKLNLEDHLALYNKVDIALDTYPASGCTTTVEALWMGVPVLTRLGELMVSRNSASLLHALNLQNWIAETDEEYIDKGIKFTQSIEQLALLRQGMRERFMQSELYDSRGLTLHLEDFYLKALQEKLSANKEVRF”, the protein production result is “failed”.

Turning to “MQLSWKDIPTVAPANDLLDIVLNRTQRKTPTVIRPGFKITRIRAFYMRKVKYTGEGFVEKFEDILKGFPNINDVHPFHRDLMDTLYEKNHYKISLAAISRAKSLVEQVARDYVRLLKFGQSLFQCKQLKRAALGRMATIVKKLRDPLAYLEQVRQHIGRLPSIDPNTRTLLICGYPNVGKSSFLRCITKSDVDVQPYAFTTKSLYVGHFDYKYLRFQAIDTPGILDRPTEEMNNIEMQSIYAIAHLRSCVLYFMDLSEQCGFTIEAQVKLFHSIKPLFANKSVMVVINKTDIIRPEDLDEERAQLLESVKEVPGVEIMTSSCQLEENVMEVRNKACEKLLASRIENKLKSQSRINNVLNKIHVAQPQARDDVKRTPFIPESVKNLKKYDPEDPNRRKLARDIEAENGGAGVFNVNLKDKYLLEDDEWKNDIMPEILDGKNVYDFLDPEIAAKLQALEEEEEKLENEGFYNSDDEEEIYDGFEASEVDDIKEKAAWIRNRQKTMIAEARNRKSLKNKAIMPRSKLTKSFGKMEEHMSTLGHDMSALQDKQNRAARKNRYVERGSDVVFGDQDALTASTENGVKLRQTDRLLDGVADGSMRSKADRMAKMERRERNRHAKQGESDRHNAVSLSKHLFSGKRGVGKTDFR”, the protein production result is “failed”.

As for “MQLTSQAFSYGRPIPKKYSCQGVGISPPLSFSDVPREAKSLVLIVEDPDVPPSVREDGLWIHWIVYNLSPVVSNLAEGAQIFAVQGLNTAGEIGYCPPCPPDAKHRYYFYAYALDVVLSDEEGVTKEQLLEAMDGHIIATAELMGTYEKD”, the protein production entry is “not failed”.

Turning to “MQNCATGMQMDWISLLKAQQADFLLRVKKPKTYDLSLLESQVKGCHSEIMAFWGEPFAKIQEVSRRQAEILAKNPPPIPPEYPEPPDWTIPFPIHFQQQAEDYFLREQIVDRLIVERLGKLLKKLPQDTVKNMVLDDEGNLRGESKFTYLLADNPKISVQVYVADGESFNGIKKDKIKWSVTQEDLKNHQVLIFLCLFYPSTGKLGYEKQAVVAGFLPTSHIAVTEPKLYFTPSHLLYAGGLSWYLESLTAKKEAKLDFLPVVIERTIPETIQTVPSEHPRKEIIGDWECWQTLRGHMRGINCLSFSSGCENGLPMLASGSRGETKLWDLNQGELIDTLSEYPWIVSGLVDEVNSLAFSADGQMLVSGGADSTIKIWHTGALDLIDILHKHNGIVRCAAFTPDGQMLATGGDDRRILFWDLMHRQVKAILSLDDTAAHSLVLSRDGQTLVTGSYRKIKVWQTSGSWFGKNLKDAQPLHTLMGHGHIVRSLAMSKDGQLLISGSWDQTIKIWHLATGRLIRTLKGHTDKVYAIALSPDEQIIASGSSDQTIKLWHLETGELLATFTGHTDIVTALTFTTSGEMLVSGSLDKTIKLWQRS”, the protein production result is on record as “failed”.

Turning to “MQNLSLQKALKKPEVKTLLQQLGDSLGKNFAIFDIGGHCLWGKAQDSQPKVDIYCHQVLMGTITGEFTEHSAEAIAAMLSYIVQTEYEKKQLAKDTLQKYEEVVFLSQFANAVATCTGLQELIEVIRAEIRQVISVDEIFLYLYDQSQDSLTPLLYKTEESLQNFKAIEKIVERVLKLNQVEVIDDIQNDQDYLNQPSKIRSLLCYSLTVQNSIIGVLGLAHYQVKHFDSSDLNLFSTLTGQVAAAIRTAQYYETIKNYSQTLEIRVKERTMELEFAKQQLEQVNQRLKHLAIYDELTQIPNRRYFTSYLEQEWRQCLRQKSPISLILCDVDYFKNYNDLYGHQMGDKCLQSVAKVIQNALKRPSDVLARYGGEEFIVILPYTDQSGAYTVGQRIHHCLAEAQISHADSPTSRYLTISLGIGTTVPLLHYHPSDLIKIADQALYAAKAAGRNQTKLKTLSFQCS”, the protein production entry is listed as “failed”.

With “MQNRWAETKFDSDIDEVVYGSRLIGSDPDLVLHGGGNTSVKTTERDHAGRIISVLRVKNSGSNLGTIDSRGFTGIRMDDALAAAKIDKMTDEAMVDYLKKSMVNPSEPSPSVETFLHAFLPYKFVMHSHADAILSITNTDLPSDQIAKILGNVVVLPYIPPGFTLAKEVMNCFKKGIDGIVLRKHGLLTFGDTGKEAYDRHINIVSRAENFIREKTDGK”, the protein production entry was “not failed”.

Turning to “MQNSFLPLNTRRFRQRAQVETPDTVYWDRLAKPELLKEHNTIDYLDFSPSDPDNFVVTCSVRVQIYNLVTMLVVKNLSRFQKTAYGATFRQDGRLLAAGDEEGHVKLFDTTSRNILRLFKGHTAPVHRTFFTADKLQLASFGDDKSVRLWDVANEKVVQTYEDTHTDYVRAGAMHPQAGHMFVSGGYDGKIKLYDTRAETAVQRTLDHGAPVESMLFLPNGSIFVSAGGSQVRVWDLISGCRLLTMMSQHHKTVTCLRLGSDGRRLLSGGLDRHVKIYDVSTYKTVHTLTYPNAVVSMAVADGDQAVVAGMVDGLVSIRRMMVDSKPSHLKKIRADRARKYFVSTKRTNNTQEVDHTIKDHVKGPGLKSYDVHLRQFNHKKALDDVMNAQKMQYQPELIVAVITDLLHRGSLGKALTGRHEAALVRFIDFICNHLGEVRFMRPLMMAASTVLDVFEQRLVAYSQKLMKALQRLSLAMQEEVRLTAELMRMKGAVDMLIGISMDNSEVAHKPTYVETKTPKMHPSVAAQNYVVLVE”, the protein production result was “failed”.
